The values below come from article doi:10.64898/2025.12.02.691841.

The experiment has as its target His5-MttP (MM_1691), DME family transporter of Methanosarcina mazei (Methanosarcina mazei). Put plainly: SEC. For orientation: Size exclusion chromatography separates by hydrodynamic size, large species first.

The term stoichiometry N denotes the number of molecules, sites or subunits per partner or assembly.

The substance “MttS (sORF05), small protein of Methanosarcina mazei (natural protein)” had a stoichiometry N of 1. Then “MttQ (MM_1692), small protein of Methanosarcina mazei (natural protein)”, with 1.
